Data on three molecules can be found in publication PMC12152883, “Bile acids inhibit equilibrative adenosine transport to alter adenosine receptor signaling in cholestasis” (The Journal of Biological Chemistry, 2025).

For data set [1], the target named is T1, ENT2 (Homo sapiens, UniProt Q14542).
T1 sequence (Q14542 1-456): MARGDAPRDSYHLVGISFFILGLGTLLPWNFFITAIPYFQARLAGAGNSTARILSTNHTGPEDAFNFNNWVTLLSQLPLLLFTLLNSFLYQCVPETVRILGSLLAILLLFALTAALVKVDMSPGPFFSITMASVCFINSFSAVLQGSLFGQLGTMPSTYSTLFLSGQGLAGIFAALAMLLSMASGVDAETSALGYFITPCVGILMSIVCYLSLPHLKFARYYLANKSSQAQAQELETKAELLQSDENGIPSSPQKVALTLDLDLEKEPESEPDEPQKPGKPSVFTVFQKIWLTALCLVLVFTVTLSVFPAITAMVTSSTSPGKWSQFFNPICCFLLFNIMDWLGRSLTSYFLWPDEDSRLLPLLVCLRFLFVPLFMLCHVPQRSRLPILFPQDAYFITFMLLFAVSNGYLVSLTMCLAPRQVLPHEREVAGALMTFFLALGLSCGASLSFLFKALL
To be noted: cited from earlier work.

The subject of data set [2] is ENT3. More on the design: method as in PMID 34144123. To be noted: read-out: km of ENT3 for Ado transport; cited from earlier work.
Substrate in data set [3]: C[C@H](CCC(=O)O)[C@H]1CC[C@H]2[C@@H]3[C@H](O)C[C@@H]4C[C@H](O)CC[C@]4(C)[C@H]3C[C@H](O)[C@]12C
The experiment in a line: Radiolabeled BA transport in ENT2 mRNA-injected Xenopus oocytes. To be noted: pH 7.4. It counts as cell-based, human.

Substrate in data set [4]: C[C@H](CCC(=O)O)[C@H]1CC[C@H]2[C@@H]3CC[C@@H]4C[C@H](O)CC[C@]4(C)[C@H]3C[C@H](O)[C@]12C
Described as above. It counts as cell-based, human. To be noted: pH 7.4.

The mark [5] stands for this setting: other: printed in picture Fig. 2B.

Values joined by “and” are separate entries in the source; they are usually repeats but may differ in a detail not shown here. Equal values may be shown once. Read-outs that look alike come from different tables or passages of the source.

Consider `Nc1ncnc2c1ncn2[C@@H]1O[C@H](CO)[C@@H](O)[C@H]1O` [Ado, adenosine], for which the Michaelis constant (Km) (usually the substrate concentration at which the rate is half of its maximum) was roughly 100 µM in data set [1] (read-out: Km of ENT2 for Ado transport) and 2000 µM in data set [2].

On to `Nc1nc2c(ncn2[C@@H]2O[C@H](CO)[C@@H](O)[C@H]2O)c(=O)[nH]1` [guanosine], for which the Michaelis-Menten constant (Km) in data set [1] (cloned ENT2-expressing ENT-deficient PK15 cells, read-out: km for guanosine, ENT2) was 2700 µM.

B1: ENT2 (Homo sapiens) (protein)
chain: T1 sequence (Q14542 1-456)
notes: The complete ORF of ENT1 (amplified using forward primer); expressed in transfected cells; host or cells: Xenopus laevis oocytes injected with in vitro-transcribed capped mRNA from pOX-hENT2
As to B1, the Michaelis-Menten constant (Km) in data set [3] (other: oocytes, Fig. 2B) was 195 µM and 200 µM; in data set [3] (setting [5]), 200 µM; in data set [4] (other: oocytes, Fig. 2B), 491 µM; in data set [4] (setting [5]), 500 µM.
